According to patent publication US20180319855A1, “GENETICALLY MUTATED AEQUORIN-BASED BIOSENSORS WITH EXTRA SENSITIVITY TO CALCIUM AND IMPROVED BIOLUMINESCENCE INTENSITY” (CENTRE NATIONAL DE LA RECHERCHE SCIENTIFIQUE (CNRS), priority 2015, published 2018):
Residue numbers refer to the chain shown, from its start. Numbers in names are those of the source. Where “and” joins values, the source holds several entries; their conditions need not be identical. Equal values may be shown once.

B1: A123D: apoaequorin mutant, alanine 123 replaced by aspartic acid (SEQ ID NO:10) (protein)
chain: SKLTSDFDNPRWIGRHKHMFNFLDVNHNGKISLDEMVYKASDIVINNLGATPEQAKRHKDAVEAFFGGAGMKYGVETDWPAYIEGWKKLATDELEKYAKNEPTLIRIWGDALFDIVDKDQNGDITLDEWKAYTKAAGIIQSSEDCEETFRVCDIDESGQLDVDEMTRQHLGFWYTMDPACEKLYGGAVP
modifications: mutant aequorin
B2: Q159D: apoaequorin mutant, glutamine 159 replaced by aspartic acid (SEQ ID NO:5) (protein)
chain: B1 chain with D123A, Q159D
modifications: mutant aequorin
B3: Q159E: apoaequorin mutant, glutamine 159 replaced by glutamic acid (SEQ ID NO:8) (protein)
chain: B1 chain with D123A, Q159E
modifications: mutant aequorin
B4: A179T: apoaequorin mutant, alanine 179 replaced by threonine (SEQ ID NO:11) (protein)
chain: B1 chain with D123A, A179T
modifications: mutant aequorin
B5: QT + AD: apoaequorin double mutant Q159T + A123D (SEQ ID NO:16) (protein)
chain: B1 chain with Q159T
modifications: mutant aequorin
B6: QT + ND: apoaequorin double mutant Q159T + N121D (SEQ ID NO:14) (protein)
chain: B1 chain with N121D, D123A, Q159T
modifications: mutant aequorin
B7: QT + AT: apoaequorin double mutant Q159T + A179T (SEQ ID NO:18) (protein)
chain: B1 chain with D123A, Q159T, A179T
modifications: mutant aequorin
B8: Q140R: aequorin single mutant Q140R, low calcium affinity (protein)
chain: B1 chain with D123A, Q140R
B9: S157A: aequorin single mutant S157A, low calcium affinity (protein)
chain: B1 chain with D123A, S157A
B10: S157T: aequorin single mutant S157T, medium-low calcium affinity (protein)
chain: B1 chain with D123A, S157T

experiment: Thermostability: relative bioluminescence activity after 30 min incubation; assay type: physicochemical; conditions: 30° C. for 30 min; CLZ-f
Procedure: Thermostability of aequorin and redquorin mutant with increased affinity for calcium were compared to wt-aequorin (FIG. 5). The purified photoprotein samples were reconstituted with CLZ-f (as detailed earlier) and let to calibrate at room temperature (20-24° C.) for 20 min before taken the first measurement of total counts using saturating calcium solution (50 mM Tris-HCl, 100 mM CaCl2, pH 7.5). Samples were then incubated at two different temperatures (30 to 40° C.) for 30 min, and let equilibrate at room temperature for 15 minbefore taken the second measurement of total counts in the sample. The relative bioluminescence activity at each temperature was calculated by the ratio 2nd counts (at target T° C.)/1st counts (at initial T° C.) multiplied by 100.
Table 6 highlights the analysis of thermostability data obtained at two temperatures for aequorin and redquorin mutants, as well as CitA and GA. The values represent the degree of change in luminescence activity compared to wt-aeq, at each temperature. All values are relative to wt-aequorin (at each temperature) and were calculated by dividing the obtained data for each mutant/variant by the data for wt-aeq (as reference). The data were taken from FIG. 5.

Molecule	Thermostability, luminescence activity relative to wt-aequorin
B1	0.82
B2	0.95
B3	0.89
B4	0.96

same assay, conditions: 40° C. for 30 min; CLZ-f

Molecule	Thermostability, luminescence activity relative to wt-aequorin
B1	0.84
B2	1.00
B3	0.94
B4	1.02

same assay, conditions: after incubation at 30 and 40° C.

Molecule	less activity compared to wt-aeq (thermostability)
B1	19%

experiment: Ca2+ sensitivity curves of reconstituted photoproteins (L/Lmax vs free Ca2+); assay type: biochemical; conditions: CLZ-f; L/Lmax compared to Aeq-wt
Procedure: For in vitro reconstitution, the purified and concentrated samples of apoaequorin and redquorin mutant proteins were buffer-exchanged to 50 mM Tris-HCl (pH 7.5), 150 mM NaCl, 10 mM EGTA, 5 mM ß-mercaptoethanol, supplemented with 5 μM CLZ-f or CLZ-native and incubated overnight at 4° C., in the dark. The next day, samples were passed through molecular weight cut-offs (AmiconUitra MWCO, 10K and 50K, from Millipore), then resuspended in Zero-Ca^2+ buffer (30 mM MOPS, 100 mM KCl and 10 mM EGTA, pH 7.2) for calcium affinity, emission decay kinetics and spectral analysis assays. As for in cellulo reconstitution, HEK cells transiently expressing the proteins of apoaequorin and aporedquorin mutants were washed twice with Hank's Balanced Salt Solution (HBSS) and incubated in the dark, with 4 μM of the desired CLZ diluted in OptiMEM I medium (Gibco), for 2-3h at 37° C. and 5% CO2. Cells were washed once and maintained in HBSS at 37° C. for 20 min before the experiment.
Functional Analysis of Aequorin Mutants and Fusions Ca^2+ Sensitivity Curves.
Purified and reconstituted samples with CLZ-f or CLZ-native already buffered-exchanged to zero-calcium buffer ensured to minimize calcium contamination that could interfere with the measurements. Fifteen microliter aliquot of photoprotein samples (concentration range, 50 to 90 ng/μl) was placed in a home-made luminometer and mixed with 300 μl solution containing the desired concentration of free-Ca^2+. The solutions of EGTA-buffered with varying free-Ca^2+ prepared according to the manufacturer instruction for the kit (Molecular Probes, Invitrogen). Integration of the luminescence emission (per second) was measured for 20 seconds (background) before injecting a solution with known [free-Ca^2+] and lasted until stable or decaying signal (at final-phase) was obtained. At this point, 400 μl of a saturating calcium solution (30 mM MOPS, 100 mM CaCl2, pH 7.2) was rapidly injected (less than 30 ms) and light integration continued until all aequorin had been consumed and light intensity had gone back to background signal. Luminescence intensity (L) at different [Ca^2+] was taken as the response peak value in case of decaying signal or as the stable value in case of stable emission. Lmax, was measured by integrating all remaining luminescence signal from that moment (L value) to the end of the experiment. The EC50 values were extracted from a sigmoidal dose-response fit (variable slope) using GraphPad Prism software.

Molecule	Relative intensity at pCa 6.5	Relative intensity at pCa 7.2
B1	3.6	1.6
B2	25 and 25.1	–
B5	22.8	10.0
B6	14.4	12.2
B7	29.0	14.0
B4	3.0	1.3

same assay, conditions: CLZ-f; at pCa 6.5; FIG. 2

Molecule	affinity to calcium group relative to Aeq-wt
B1	medium-high to high
B8	low
B2	medium-high to high and high
B9	low
B10	medium-low
B4	medium-high to high

same assay, conditions: aequorin proteins reconstituted with CLZ-f; sigmoidal curve fit; mean ± SD, n at least 3; read-out: Calcium sensitivity, EC50

Molecule	EC50
B1	374 nM
B2	330 nM
B5	279 nM
B6	337 ± 10 nM
B7	281 ± 25 nM
B4	330 nM
